{"source": "paper PMC7137648", "key": {"C1q (Homo sapiens) [1]": {"biological_target": "C1q (Homo sapiens) (UniProt P02745)", "sequence (P02745 23-245, chain 1 of 3)": "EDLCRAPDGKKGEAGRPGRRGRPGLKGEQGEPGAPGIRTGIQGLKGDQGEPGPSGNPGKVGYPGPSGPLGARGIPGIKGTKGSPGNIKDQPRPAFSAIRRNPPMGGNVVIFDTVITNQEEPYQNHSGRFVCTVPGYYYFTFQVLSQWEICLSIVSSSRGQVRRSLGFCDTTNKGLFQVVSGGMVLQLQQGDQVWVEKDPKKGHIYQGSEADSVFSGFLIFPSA", "sequence (P02746 28-253, chain 2 of 3, further chain)": "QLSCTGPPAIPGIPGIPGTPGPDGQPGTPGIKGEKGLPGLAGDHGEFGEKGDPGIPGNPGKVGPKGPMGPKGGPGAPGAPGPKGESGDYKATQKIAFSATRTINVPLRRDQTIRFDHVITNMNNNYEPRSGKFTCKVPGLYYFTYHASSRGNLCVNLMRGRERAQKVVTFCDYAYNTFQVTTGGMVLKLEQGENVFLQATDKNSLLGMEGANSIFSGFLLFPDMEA", "sequence (P02747 29-245, chain 3 of 3, further chain)": "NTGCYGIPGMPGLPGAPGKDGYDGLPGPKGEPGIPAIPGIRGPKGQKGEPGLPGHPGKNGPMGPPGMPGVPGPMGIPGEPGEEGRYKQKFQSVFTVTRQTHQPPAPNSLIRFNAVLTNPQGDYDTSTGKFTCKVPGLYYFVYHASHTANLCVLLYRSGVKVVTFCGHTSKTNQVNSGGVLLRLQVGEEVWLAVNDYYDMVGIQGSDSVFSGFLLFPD", "conditions": "cited from earlier work"}, "[2]": {"biological_target": "complement protein C1q (human) (UniProt P02745)", "sequence (P02745 23-245, chain 1 of 3)": "as the sequence (P02745 23-245, chain 1 of 3) above", "sequence (P02746 28-253, chain 2 of 3, further chain)": "as the sequence (P02746 28-253, chain 2 of 3, further chain) above", "sequence (P02747 29-245, chain 3 of 3, further chain)": "as the sequence (P02747 29-245, chain 3 of 3, further chain) above", "assay": "SPR; N-glycosylation site mutants of SR-F1(20-421) with C1q (Figures S5A-C), n = 2; which partner was immobilised is not told in the text shown; apparent affinity"}, "C1q (Homo sapiens) [3]": {"biological_target": "C1q (Homo sapiens) (UniProt P02745)", "conditions": "cited from earlier work", "remark": "listed apart in the source"}}, "note": "Where two headings read alike, the source gives them in different places."}
{"substance": "SR-F1 ECD (from UniProt Q14162)", "values": [{"measurement": "Kd", "setting": "C1q (Homo sapiens) [1]", "value": 124, "unit": "nM"}]}
{"substance": "SR-F1(20-421) N289Q (from UniProt Q14162 20-421) (domain or fragment)", "values": [{"measurement": "Kd", "setting": "[2]", "value": 581, "unit": "nM"}]}
{"substance": "calreticulin (from UniProt P27797)", "values": [{"measurement": "Kd", "setting": "C1q (Homo sapiens) [3]", "value": 120, "unit": "nM"}]}
